This data set in a line: label from the status in PepcDB records.
For “MRGWILYKETATQLKPEWYEIERLLAAAKADNIELEVYAPDEFDLTVTREDNKSILLNGQPVELPDFIIPRMGSGTTYFALAIIRHLERLGVYCLNPSKAIEIVKDKLFSQQLLAEKNLPTPKTMLVKFPVDIDLVERHLGFPVVIKTLSGSQGSGVFLSHKAREFDDLMQLIEATNKNANIILQEFIANSHGRDLRVFTIGGRVAGCYERRGQEDSFKANVSAGGSARPFDITPEIEWLATQTANILDLDVAGIDLLFDNGHYKICEANSSPGFEGLESCLNVDIAAQILHFIRIRLGMFNKDEKNSDPQLTHAGPALANNVTSSKAAE”, the protein production result was “failed”.
“MKYLHFTRPTIKVIFMINSIKTLLLIATLAILSACGWHFQQSVTMPSEWRTLALESDDSYNDFTVIMRRKLQENQVNVVNLEQNIPILRINKQITSDQVASIFKHGREAEKLLMLEVEATFRLANGESYPINAKVNRTFFDNARAALAKSEEREVIWNDMREQVARQLIVKIIALQNQIKRKLEHHHHHH”: the protein production entry is listed as “failed”.
In the case of “MNEADMLFSVTVPGSTANLGPGFDSVGMALSRYLKLTVFESDKWSFEAETETVAGIPAGTDNLIYQVAKRTADLYGKEMPPVHVKVWSDIPLARGLGSSAAAIVAAIELADELCGLKLSEADKLHLASLEEGHPDNAGASLVGGLVIGLHEDDETQMIRVPNADIDVVVVIPFYEVLTRDARDVLPKEFPYADAVKASAVSNILIAAIMSKDWPLVGKIMKKDMFHQPYRAMLVPELSKVEHVAEMKGAYGTALSGAGPTILVMTEKGKGEELKEQLALHFPHCEVDALTVPKEGSIIERNPLYQVKSV”, the protein production entry is “not failed”.
On to “AEIFTTLSCEPDIPNPPRIANRTKNSLTLQWKAPSDNGSKIQNFVLEWDEGKGNGEFCQCYMGSQKQFKITKLSPAMGCKFRLSARNDYGTSGFSEEVLYYTSGC”, for which the protein production entry is “not failed”.
Regarding “MIIETERLLLRPFNEQDVDALYLMNSNPAMLKYIPTAPFTDREQARELFHNVILQDYQQRGFGRWAVEHKADNRVIGFCGPKFIPEFNEVEIGYRYFPEYWGKGIGTEAAEAALSVFPQFGIKQTIALILEGNLGSETVAKRVGMYWREHSEFMGHK”, the protein production entry is “failed”.
For “MRWKGRRVSSNVEDRRGSGAKVGGISIIGLVVAFVAWKFFGVDPQQAYQATQQITAAQNPSSNAPQQLTADQKEASDFVGTILADTEDTWTPIFKQLGQTYVPPKLVLFNGIVQSGCGTAQSAMGPFYCPTDQKVYIDTSFFKDMREQMGISGEQNQTELSRQDQAGDFAQAYVVAHEVGHHIQNLLGISSQVQQAQAQGSRAQANQLSVRLELQADCFAGIWANHNQQRTQFLEAGDIEEAMDAAQKIGDDYLQKRSTGQVVPDSFTHGTSQQRMHWFEVGLKSGDLNQCDTF”, the protein production result is given as “failed”.
Regarding “MAIAFHTFLLQLLLFFFASFAEANDSRKTYLVQMKVGGHRYGSSSGHQELLGEVLDDDSYKESFTGFSASLTPRERQKLMSKTTTVSSRRREVLEVSRSRNLKLQTTRSWDFMNLTLKAERNPENESDLVVAVIDSGIWPYSELFGSDSPPPPGWENKCENITCNNKIVGARSYYPKKEKYKWVEEKSVIDVTGHGTHVASIVAGRKVEKAGYFGLAEGTMRGGVPNAKIAVYKTCWRVIRKNGREDSVCREDNILKAIDDAIADKVDIISYSQGFQFTPLQKDKVSWAFLRALKNGILTSAAAGNYANNGKFYYTVANGAPWVMTVAASLKDRIFETKLELEGEDKPIIVYDTINTFETQDSFYPLLNEKAPPESTRKRELIAERNGYSILSNYDEKDKGKDVFFEFAQINLLDEAIKEREKGAIVLGGKSYDFNESIKLQFPIASIFLDEQKKGKLWDYYKKDQSKERLAKIHKTEEIPREEGWVPTVAHLSSRGPNCDSFLANILKNSHMNNCFQPDIAAPGLDIIAGWPENVKLSSDRPANDYRHLRFNIMSGTSMACPHATGLALYLKSFKRWSPSAIKSALMTTSSEMTDDDNEFAYGSGHLNATKVRDPGLVYETHYQDYIDYLCKLGYNTEKLRSHVGSDKIDCSKTEIDHDADLNYPTMTARVPLPLDTPFKKVFHRTVTNVNDGEFTYLREINYRGDKDFDEIIVDPPQLKFSELGETKTFTVTVTGISKRNWNKNRAFMTRNTWLTWTEKDGSRQVRSPIVIYSIKGPKACM”, the protein production entry is “failed”.
In the case of “MATETLTKSDAITQSLRAAVDRNFNDQVAFLQRMVQFRSVRGEEAPQQEWLAQQFADRGYKVDTFSLADVDIASHPKAAPMDTIDPAGSMQVVATADSDGKGRSLILQGHIDVVPEGPVDLWSDPPYEAKVRDGWMIGRGAQDMKGGVSAMIFALDAIRTAGYAPDARVHVQTVTEEESTGNGALSTLMRGYRADACLIPEPTGHTLTRAQVGAVWFRLRVRGTPVHVAYSETGTSAILSAMHLIRAFEEYTKELNAQAVRDPWFGQVKNPIKFNVGIIKGGDWASSTAAWCELDCRLGLLTGDTPQEAMRGIEKCLADAQATDSFLSENPAELVWSGFQADPAVCEPGGVAEDVLTAAHKAAFNAPLDARLSTAVNDTRYYSVDYGIPALCYGPYGQGPHAFDERIDLESLRKTTLSIALFVAEWCGLRKL” it was “not failed”.
Turning to “MTAEIDIQNSIRLELSRHGHYVFRANVGKVRMPNGRIFDTGLPKGFPDLFGFRGTDGKMFFIEVKNEIGKLRQEQKNFQQAMEITPAIGVARSAEEALKIVEGLEHHHHHH”, the protein production result is “failed”.
Take “MNKQQQSMNTNRSAQEMSETSPEYEQKYQQAIDCIENQEYGQAISILDELAGEASRDAKLRYARAVALLSNGEYRRAGTDLAFTVALDRSNLEAYRHLGFVLLTMGKEEAAIKVLEEALRRDPCFVEAWCVLADVHMDLGEHDKALDALDRAHELQPGNAEVHCKLAMYYMSRGDMRGLRAEYEVLREIEPDVAAQIAELLP”: the protein production result was “failed”.
Consider “MDERRFFRDVCAEWMEQYRLTVRESTLEKTQRIINIHVLPAFGDMVINNITPNVCQKVVNKWFLEAKSYKKWLNYASMIFDYALRAEYVGRNPCTLVTMPRVQEQAGEKLEHHHHHH”, for which the protein production entry was “failed”.
As to “MQEKYNFGKVSSQHKNYSKIETMLRPKGFDKLDHYFRTELDIDLTDETIELLLNSVKAAFGKLFYGAEQRARWNGRDFIALADLNITKALEEHIKNFQKIEQDMGVDELLEYIAFIPPVEMNVGEDLKSEYRNIMGGLLLMHADVIKKATGERKPSREAMEFVAQIVDKVF”, the protein production result is “not failed”.
In the case of “MKKLFFIFLGSCTFALGTLGIFLPLLPTTGFYLLTAFFWMRSSDKLYNKFLASSYYQKYIQEAFFEKKITRKGKWKLFISMFLLFAIPCLIVRNTLMTTTLAIVYLAHVIGLSWYWRPKKKALELDQE”, the protein production result is “failed”.
Regarding “MEKCSRETLLFIFITISSVATSTSTWMPMDGNYGASYCLSWRLAVETNNVRAWRIVPLQCLRYVEVYMLAGQYDRDVQLTVDQIKVYLNEIILPGDGMDAWILDVDDTCFSNVFYYRLKRYGCDPYDPTGFRTWAMKGESPAIQPVLELFYKLIETGFKVFLVTGRDEETLRQATLENLHNQGFTGYERLIMRTADNKRQSATTYKTRIRKEMMEEGYRIWGNVGDQWSDLQGEYSGDRTFKIPNPMYFVP”, the protein production result is given as “failed”.
In the case of “MFVLNIFSTTHKQRGLNRASCPPLGNYSNNHTLAYRVKCISEETRDSNSLVSSLNRKLWKTSVAGSDIPMIYSPFLEDMQNTLFASFETVEDYPLSEFLASAQSSKKPARIESWCYQCPKFRKIRLTYLDAGVAAQVFNAVWYPISSLELPILGVDFLSFGGKNVLCVMDFQPLMNDQYYLDKYIQPLHPIRERYADLAGRMSSRFYDENRFFSKELLFGRFDSTKPIYERLFPAFREYLDLYITLAKQTVEDDKSRSIIWQLQCEYDRYSAEKDPAMSLFRSYFGSTWAHRFVYEFLFENSRYESSLDNKT”, the protein production result is “not failed”.
For the sequence “MSLLLCDIGNSNANFLDDNKYFTLNIDQFLEFKNEQKIFYINVNEHLKEHLKNQKNFINLEPYFLFDTIYQGLGIDRIAACYTIEDGVVVDAGSAITIDIISNSIHLGGFILPGIANYKKIYSHISPRLKSEFNTQVSLDAFPQKTMDALSYGVFKGIYLLIKDAAQNKKLYFTGGDGQFLANYFDHAIYDKLLIFRGMKKIIKENPNLLYEGHHHHHH”, the protein production result was “not failed”.
For the sequence “MDLFVMVVGASGIGDGGEQKYNYKLRAWTNEDDPRQTKIVTTNADPEFREVLHLPQNMASSFLNLELFSVNSADTDAFFIGRANTALPMKTNANVYRKIKLQNLDTSGNIVTVGYLEVYLGLETG”, the protein production result is listed as “failed”.
In the case of “NIDLDVQNMAQNALKFGYDEIVKRDKDANLSTLNGAMVVVNHQSGDVLALVGGVDYEKSNYNRATQSMRQPGSSFKPFVYQVAINLGYSPMSEIADISRIFEGGAGNNEDWKPKNEGGKFLGLITLKEALTRSRNLATINLALDMGLDVLYSKLMEFGFKDIPPNLSIVLGSFGISPLEYSKFYTMFGNYGTIKDPQIIRQVQDKTGKTIMEFNSNERKVSDEAQSFLVLDMMRNVVEKGTGRNARVKDIEIAGKTGTTNKSVDAWFCGLTPEIEAIIWYGNDNNKPMRYTEGGARTAAPVFREFLTQYIEKFPDTTR” it was “failed”.
Consider “MSMKRSREESQGGGNHNRFVDEGPRLNLPLTKTPELINKIESYLKVHYTCPHQQTENSSKTSTLPKSPEKLKAMNFPISTIKIGDCVFVAKNPDDIVAKFYFAKKKLLWEFLFGEPVANMPRLKSKIEIQWNDVSSFEESINSRDETGILKIELKKRPTFFTETNPQAGKHTQWKQLDYDFTGDQASYYRRHTLHFPPGVLQKNLEKLLTDSFWSKLYKVPFPVHESLYFDIGFENNNSSNGHSKTVGFNVNNGLQHDFSQVRDLKERKKIITLIGIGGVGEGEGNFSMANGGWQRNSYSHVNSLNYNTDNGLLGMQAIPPSSQVANEHYNNTQNDYTGSQFGYRMNQDEIQKMQRIGKILESQAYAVPDTQTKLTSSGMNNGPMYPPAGSYLESRLLEEWYEHTRRFQQ”, for which the protein production result is “not failed”.
For “MVGGVEELSIEQLASSISTYKEQLEQNFVCGLEFRIGEEKLNVRQLLSEDPRNSEYADMEKELKEVIALTEEVLATAKQNEISLSDAGVSAEATPGSPDLEGAWEKTGLRNDPIHEGKFPVGTKVQAVFSDDGEWYDATIEAHTANGYFVAYDEWGNKEEVDPDNVRPIEQNAIVEAERLAQATKNALKRKIEKAASSDYQTKTLPAKLKIDPNDPEDVKIAKRKKIHAFKSKARFEQLEVVQNKKQNDWQQFQTTKAKTKKVGFFTGRKKESIFKSPEDPFGKVGVTGSGKGLTDFQKREKHLHLKSGNAEGTDE”, the protein production result is listed as “failed”.
In the case of “WVSNIDPAETFRHTELHVVKSVYDGLLTQNSNGGIEPALAHEWKMEENVMTLWLRPGIFRHDGELLSIDDVVWSLERLKQIKGPVYELWQCIETVTAETPNCLKIVLKRANQFFPYMLATPHASILCRDTASFGSGYSYHIGTGPFRISSWN” it was “failed”; in that of “TVAVSQIVEHPALDATRQGLLDGLKAKGYEEGKNLEFDYKTAQGNPAIAVQIARQYVGESPDVLVGIATPSAQALVSATRTIPVVFTAVTDPVGAKLVKSMKQPGKNVTGLSDLSPVAQHVELIQEILPQVKSIGVVFNPGEANAVTLVNLLKESAEAKGIKVVEATALKSADVQSATQAIAAKSDILYAPTDNTVASAIEGMIVAANQAKKPVFGGATSYVEKGAIAGLGFDYYQVGVQTADYVAAILDGQEPGKLDVKVATGSDLVINESAASKLGIQLPSSVVQRATSMQ”, “not failed”.
“MKDEVQLKKYLPSLIFAIILPVIAYLFLKMLGNSDTLALGIATAFPVVHMLWSLIRKKELNPVSLVAIIGFLISLLAVYLTHGNNLAFKLWHPILTAAIGTIFLLSVLLNRPLLELASEGENHRKMLIMTLFMGLVFIFHALSVILLAFFVETTAFVLLSKVIDFSAVGVLVLGLAFLRKKLN”: the protein production result is “failed”.

For the origin of these results see a protein production outcome set (Wang et al. 2014).
